Laboratory results published in doi:10.1101/2023.04.13.536481 (bioRxiv, 2023).

Target: the molecule itself
Experiment: crystal structure

B1: LIN-42 N-terminus residues 41-315 (domain or fragment, C. elegans)
chain: GAMDPEFNTWSSSSVEFLDDADDNRLLFTCTFTLPHGTVLSSATYADGFHEQYLTIGDNFLARLEPKGQSFILSAAAASVKQRIFARVTMPDGALRACELLCEFETDRAKITVLALRSAFSLQASHVSSNFHVFTFITKHSSTCALTHIDYASIPYLGLLPTDLIGKSLLAFVYSPDVHVVRQAHIDLHNSRGKIVKSIADLRLVAHNGSILRCQTEWSAYVNPWTRKMELVVARHRICSLPIGDSDVISSPPPGIQSNTLPPVMAKTFEDELRTIMNKPVP
binding result: binds
